In patent US20250084176A1 (F STAR BETA, published 2025):

Tests used:
[1] = target: T1, mouse CD137 ligand on DO11.10 cells (mouse, UniProt P41274 1-309); test: flow cytometry, detection with anti mouse Fc fragment antibody
T1 construct: whole, on cells
T1 sequence (looked up): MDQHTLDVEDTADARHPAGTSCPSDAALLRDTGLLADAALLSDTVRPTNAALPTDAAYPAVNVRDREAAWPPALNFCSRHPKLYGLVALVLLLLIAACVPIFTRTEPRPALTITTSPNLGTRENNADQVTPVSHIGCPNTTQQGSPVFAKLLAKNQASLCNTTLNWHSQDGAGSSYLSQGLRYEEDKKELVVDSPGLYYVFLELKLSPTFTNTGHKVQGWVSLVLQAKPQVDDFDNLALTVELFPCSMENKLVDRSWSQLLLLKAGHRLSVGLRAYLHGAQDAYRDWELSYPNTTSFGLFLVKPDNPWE
Method: In more detail, materials from the same production lot were mixed together and analysed for stability and purity by size-exclusion high-performance liquid chromatography (SE-HPLC), SDS polyacrylamide gel electrophoresis (SDS-PAGE), and size-exclusion chromatography with multi-angle light scattering (SEC-MALS). […] Cells were incubated with the CD137 antigens for 1 hour, and then a fluorescently-labelled anti mouse Fc fragment antibody was used to detect cell binding.

[2] = target: T2, mouse CD137, full length, on cells (mouse, UniProt P20334 24-256); test: cell-based or functional assay
[3] = target: T2, mouse CD137, full length, on cells; test: cell-based or functional assay; remark: listed apart in the source
mouse GITR = target: T3, mouse GITR (mouse, UniProt O35714 20-153, limits assumed, biotinylated (EZ-Link Sulfo-NHS-SS-Biotin)); test: BLI (Octet QKe), biotinylated receptor on streptavidin sensors
T3 sequence (looked up): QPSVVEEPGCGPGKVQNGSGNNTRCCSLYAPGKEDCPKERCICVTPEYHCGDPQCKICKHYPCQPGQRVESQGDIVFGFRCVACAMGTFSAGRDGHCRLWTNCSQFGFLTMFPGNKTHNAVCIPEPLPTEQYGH
Method: (§1) The specificity of the anti-mouse CD137 Fcabs for mouse CD137 was tested in HeID1.3 “mock” mAb² format and measured by BLI in an Octet QKe system by testing for binding of the Fcabs to other mouse TNFRSF receptors (CD40, OX40, GITR). […] Anti-mouse CD137 Fcabs in mock mAb² format were diluted 1:1 in kinetic buffer (PALL 18-1092) to a final concentration of at least 1 μM. Antigen-coated sensors were dipped into the mAb² solutions for 180 seconds followed by 180 seconds in 1× kinetic buffer. Antibodies for each of the TNFRSF receptors were used as positive controls.

mouse CD40 = mouse CD40 (mouse, UniProt P27512 24-193, limits assumed, biotinylated (EZ-Link Sulfo-NHS-SS-Biotin)); test: as above
Method: as §1

Sequence of mouse CD40 (P27512 24-193 limits assumed): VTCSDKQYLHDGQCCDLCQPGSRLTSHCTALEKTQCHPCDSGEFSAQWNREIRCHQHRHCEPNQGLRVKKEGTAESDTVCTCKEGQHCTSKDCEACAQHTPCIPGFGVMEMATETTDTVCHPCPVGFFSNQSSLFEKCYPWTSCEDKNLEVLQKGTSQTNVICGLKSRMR

| Binder | binding result [1] | IL-2 release, mouse CD137 DO11.10 T cell activation assay, Protein L: +XL EC50 [2] | IL-2 release, mouse CD137 DO11.10 T cell activation assay, Protein L: +XL Emax [2] | NF-kB luciferase reporter (HEK.FRT.luc.mCD137), Protein L crosslinked: EC50 [3] | NF-kB luciferase reporter (HEK.FRT.luc.mCD137): fold-change in activity upon crosslinking [3] | binding result (mouse GITR) | binding result (mouse CD40) |
| --- | --- | --- | --- | --- | --- | --- | --- |
| mCD137-mFc-Avi (Fc fusion, one biotin on the Avi sequence of each monomer (BirA); unbiotinylated in the SPR of Example 5.6, also called mouse CD137-mFc-Avi; dimeric mouse CD137; not shown: mouse IgG2a Fc domain (mIgG2a Fc)) VQNSCDNCQPGTFCRKYNPVCKSCPPSTFSSIGGQPNCNICRVCAGYFRFKKFCSSTHNAECECIEGFHCLGPQCTRCEKDCRPGQELTKQGCKTCSLGTFNDQNGTGVCRPWTNCSLDGRSVLKTGTTEKDVVCGPPVVSFSPSTTISVTPEGGPGGHSLQVL | binds | – | – | – | – | – | – |
| FS22m-063/HelD1.3 (bispecific antibody, human IgG1, kappa, also called FS22m-063 in HeID1.3 mock mAb^2 format) heavy: QVQLQESGPGLVRPSQTLSLTCTVSGSTFSGYGVNWVRQPPGRGLEWIGMIWGDGNTDYNSALKSRVTMLVDTSKNQFSLRLSSVTAADTAVYYCARERDYRLDYWGQGSLVTVSSASTKGPSVFPLAPSSKSTSGGTAALGCLVKDYFPEPVTVSWNSGALTSGVHTFPAVLQSSGLYSLSSVVTVPSSSLGTQTYICNVNHKPSNTKVDKKVEPKSCDKTHTCPPCPAPELLGGPSVFLFPPKPKDTLMISRTPEVTCVVVDVSHEDPEVKFNWYVDGVEVHNAKTKPREEQYNSTYRVVSVLTVLHQDWLNGKEYKCKVSNKALPAPIEKTISKAKGQPREPQVYTLPPSRDEPYWSYVSLTCLVKGFYPSDIAVEWESNGQPENNYKTTPPVLDSDGSFFLYSKLTVMNYRWELGNVFSCSVMHEALHNHYTQKSLSLSPG light: DIQMTQSPASLSASVGETVTITCRASGNIHNYLAWYQQKQGKSPQLLVYNAKTLADGVPSRFSGSGSGTQYSLKINSLQPEDFGSYYCQHFWSTPRTFGGGTKLEIKRTVAAPSVFIFPPSDEQLKSGTASVVCLLNNFYPREAKVQWKVDNALQSGNSQESVTEQDSKDSTYSLSSTLTLSKADYEKHKVYACEVTHQGLSSPVTKSFNRGEC | – | 0.39 nM | 24200 pg/mL | 1.44 nM | 27 fold | no binding (tested: at least 1 µM) | no binding (tested: at least 1 µM) |
